Several values for one entry are separate records, joined by “and”; a condition that tells them apart may be missing. Identical values can stand only once.
Assays:
[1] = molecular target: T1, Recombinant human leptin binding domain (hLBD) (human, UniProt P48357 428-635, biotinylated with Sulfo-NHS-LC-Biotin in the yeast display assays; not labelled when immobilized in the plate binding assay); assay: yeast display, flow cytometry titration with biotinylated hLBD (FIG. 4B)
T1 construct: CRH2 sub-domain of the leptin receptor; Prepared in the applicants' laboratory; also called soluble human leptin receptor; CHR2
T1 sequence (looked up): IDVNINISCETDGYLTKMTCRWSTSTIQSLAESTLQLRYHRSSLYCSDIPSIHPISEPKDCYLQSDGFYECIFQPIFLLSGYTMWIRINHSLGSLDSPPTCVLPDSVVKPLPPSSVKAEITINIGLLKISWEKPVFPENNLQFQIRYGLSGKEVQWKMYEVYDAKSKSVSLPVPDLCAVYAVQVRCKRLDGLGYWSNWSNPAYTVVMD
Text: (§1) Those 7 mouse leptin mutants were selected for preparation of respectively mutated leptins expressed in E. coli.

[2] = molecular target: T1, Recombinant human leptin binding domain …; assay: yeast display, flow cytometry titration with biotinylated hLBD (FIG. 4A)
Text: as §1

[3] = molecular target: long form of human leptin receptor (hLEPR) on BAF/3 or H-49 (HEK-293) cells (human), P48357; assay: cell-based or functional assay
Sequence of long form of human leptin receptor (hLEPR) on BAF/3 or H-49 (HEK-293) cells (human), P48357 (P48357 22-1165): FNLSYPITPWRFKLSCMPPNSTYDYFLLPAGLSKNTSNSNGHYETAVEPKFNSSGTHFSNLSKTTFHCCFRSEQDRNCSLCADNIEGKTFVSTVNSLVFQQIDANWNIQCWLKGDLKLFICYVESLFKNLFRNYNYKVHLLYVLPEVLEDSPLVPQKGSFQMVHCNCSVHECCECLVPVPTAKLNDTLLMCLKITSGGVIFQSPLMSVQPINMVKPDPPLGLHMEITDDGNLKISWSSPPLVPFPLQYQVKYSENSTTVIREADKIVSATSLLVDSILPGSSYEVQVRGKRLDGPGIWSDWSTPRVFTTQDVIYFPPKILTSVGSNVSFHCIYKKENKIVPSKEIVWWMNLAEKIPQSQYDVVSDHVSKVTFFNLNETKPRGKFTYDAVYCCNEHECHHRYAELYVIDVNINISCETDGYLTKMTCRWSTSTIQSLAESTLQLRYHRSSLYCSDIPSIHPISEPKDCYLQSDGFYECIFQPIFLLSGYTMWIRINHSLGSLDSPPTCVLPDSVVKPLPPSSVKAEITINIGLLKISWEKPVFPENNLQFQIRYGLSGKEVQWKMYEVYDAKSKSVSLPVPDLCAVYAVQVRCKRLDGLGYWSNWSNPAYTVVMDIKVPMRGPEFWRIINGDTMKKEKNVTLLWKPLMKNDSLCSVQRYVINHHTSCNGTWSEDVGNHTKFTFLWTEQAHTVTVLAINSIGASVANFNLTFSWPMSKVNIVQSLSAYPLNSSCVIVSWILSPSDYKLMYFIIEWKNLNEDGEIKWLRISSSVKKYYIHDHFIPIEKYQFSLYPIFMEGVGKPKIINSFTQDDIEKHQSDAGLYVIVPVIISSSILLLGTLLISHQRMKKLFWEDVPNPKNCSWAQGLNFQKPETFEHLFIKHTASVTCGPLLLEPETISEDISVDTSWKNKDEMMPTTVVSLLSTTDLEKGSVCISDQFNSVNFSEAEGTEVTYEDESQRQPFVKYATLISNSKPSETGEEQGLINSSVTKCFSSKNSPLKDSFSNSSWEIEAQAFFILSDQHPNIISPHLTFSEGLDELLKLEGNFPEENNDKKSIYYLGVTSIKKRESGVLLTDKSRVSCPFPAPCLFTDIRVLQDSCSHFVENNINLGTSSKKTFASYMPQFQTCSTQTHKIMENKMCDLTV

B1: wild type mouse leptin displayed on yeast as Aga2p fusion (ligand, UniProt P41160 22-167, looked up, not shown: large carriers; small tags and cut ends)
chain: VPIQKVQDDTKTLIKTIVTRINDISHTQSVSAKQRVTGLDFIPGLHPILSLSKMDQTLAVYQQVLTSLPSQNVLQIANDLENLRDLLHLLAFSKSCSLPQTSGLQKPESLDGVLEASLYSTEVVALSRLQGSLQDILQQLDVSPEC
notes: mature; also called mlep wt; mlep, wt1
[1]
  Kd: 95 nM and 95.7 nM
[2]
  Kd: 159 nM and 115 nM

B2: yeast-displayed mouse leptin clone H19 (D23G, T37A, G44D) (ligand, UniProt P41160 22-167, looked up, not shown: large carriers; small tags and cut ends)
chain: VPIQKVQDDTKTLIKTIVTRINGISHTQSVSAKQRVAGLDFIPDLHPILSLSKMDQTLAVYQQVLTSLPSQNVLQIANDLENLRDLLHLLAFSKSCSLPQTSGLQKPESLDGVLEASLYSTEVVALSRLQGSLQDILQQLDVSPEC
notes: mature
[1]
  Bmax: 966 MFI
  Kd: 68.4 nM
[2]
  Bmax: 968 MFI
  Kd: 104 nM

B3: yeast-displayed mouse leptin clone H6 (D23G, V30D, Y119H) (ligand, UniProt P41160 22-167, looked up, not shown: large carriers; small tags and cut ends)
chain: VPIQKVQDDTKTLIKTIVTRINGISHTQSDSAKQRVTGLDFIPGLHPILSLSKMDQTLAVYQQVLTSLPSQNVLQIANDLENLRDLLHLLAFSKSCSLPQTSGLQKPESLDGVLEASLHSTEVVALSRLQGSLQDILQQLDVSPEC
notes: mature
[1]
  Bmax: 1290 MFI
  Kd: 99.1 nM

B4: yeast-displayed mouse leptin clone H17 (S109F) (ligand, UniProt P41160 22-167, looked up, not shown: large carriers; small tags and cut ends)
chain: VPIQKVQDDTKTLIKTIVTRINDISHTQSVSAKQRVTGLDFIPGLHPILSLSKMDQTLAVYQQVLTSLPSQNVLQIANDLENLRDLLHLLAFSKSCSLPQTSGLQKPEFLDGVLEASLYSTEVVALSRLQGSLQDILQQLDVSPEC
notes: mature
[2]
  Bmax: 3600 MFI
  Kd: 620 nM

B5: yeast-displayed mouse leptin clone L1 (D23N, Q34L, L114P) (ligand, UniProt P41160 22-167, looked up, not shown: large carriers; small tags and cut ends)
chain: VPIQKVQDDTKTLIKTIVTRINNISHTQSVSAKLRVTGLDFIPGLHPILSLSKMDQTLAVYQQVLTSLPSQNVLQIANDLENLRDLLHLLAFSKSCSLPQTSGLQKPESLDGVPEASLYSTEVVALSRLQGSLQDILQQLDVSPEC
notes: mature
[1]
  Bmax: 1680 MFI
  Kd: 158 nM

B6: yeast-displayed mouse leptin clone H16 (D23G, G112S) (ligand, UniProt P41160 22-167, looked up, not shown: large carriers; small tags and cut ends)
chain: VPIQKVQDDTKTLIKTIVTRINGISHTQSVSAKQRVTGLDFIPGLHPILSLSKMDQTLAVYQQVLTSLPSQNVLQIANDLENLRDLLHLLAFSKSCSLPQTSGLQKPESLDSVLEASLYSTEVVALSRLQGSLQDILQQLDVSPEC
notes: mature
[1]
  Bmax: 550 MFI
  Kd: 44 nM

B7: yeast-displayed mouse leptin clone H22 (T12I) (ligand, UniProt P41160 22-167, looked up, not shown: large carriers; small tags and cut ends)
chain: VPIQKVQDDTKILIKTIVTRINDISHTQSVSAKQRVTGLDFIPGLHPILSLSKMDQTLAVYQQVLTSLPSQNVLQIANDLENLRDLLHLLAFSKSCSLPQTSGLQKPESLDGVLEASLYSTEVVALSRLQGSLQDILQQLDVSPEC
notes: mature
[1]
  Bmax: 719 MFI
  Kd: 82.3 nM
[2]
  Bmax: 852 MFI
  Kd: 122 nM

B8: yeast-displayed mouse leptin clone H3 (D23G, L68M, S97F, S132Y) (ligand, UniProt P41160 22-167, looked up, not shown: large carriers; small tags and cut ends)
chain: VPIQKVQDDTKTLIKTIVTRINGISHTQSVSAKQRVTGLDFIPGLHPILSLSKMDQTLAVYQQVLTSMPSQNVLQIANDLENLRDLLHLLAFSKSCFLPQTSGLQKPESLDGVLEASLYSTEVVALSRLQGYLQDILQQLDVSPEC
notes: mature; also called H15; H4
[1]
  Bmax: 1350 MFI
  Kd: 92.8 nM
[2]
  Bmax: 1450 MFI
  Kd: 91.7 nM

B9: yeast-displayed mouse leptin clone H7 (K11R, Q34R, T37A, F92C, S97Y, I136V) (ligand, UniProt P41160 22-167, looked up, not shown: large carriers; small tags and cut ends)
chain: VPIQKVQDDTRTLIKTIVTRINDISHTQSVSAKRRVAGLDFIPGLHPILSLSKMDQTLAVYQQVLTSLPSQNVLQIANDLENLRDLLHLLACSKSCYLPQTSGLQKPESLDGVLEASLYSTEVVALSRLQGSLQDVLQQLDVSPEC
notes: mature; also called H18; H27
[1]
  Bmax: 1140 MFI
  Kd: 83.5 nM
[2]
  Bmax: 1590 MFI
  Kd: 126 nM

B10: yeast-displayed mouse leptin clone H12 (S97Y) (ligand, UniProt P41160 22-167, looked up, not shown: large carriers; small tags and cut ends)
chain: VPIQKVQDDTKTLIKTIVTRINDISHTQSVSAKQRVTGLDFIPGLHPILSLSKMDQTLAVYQQVLTSLPSQNVLQIANDLENLRDLLHLLAFSKSCYLPQTSGLQKPESLDGVLEASLYSTEVVALSRLQGSLQDILQQLDVSPEC
notes: mature; also called H20; H24
[1]
  Bmax: 785 MFI
  Kd: 103 nM
[2]
  Bmax: 961 MFI
  Kd: 130 nM

B11: yeast-displayed mouse leptin clone H2 (A125T, S132Y) (ligand, UniProt P41160 22-167, looked up, not shown: large carriers; small tags and cut ends)
chain: VPIQKVQDDTKTLIKTIVTRINDISHTQSVSAKQRVTGLDFIPGLHPILSLSKMDQTLAVYQQVLTSLPSQNVLQIANDLENLRDLLHLLAFSKSCSLPQTSGLQKPESLDGVLEASLYSTEVVTLSRLQGYLQDILQQLDVSPEC
notes: mature
[1]
  Bmax: 2570 MFI
  Kd: 243 nM

B12: human leptin super antagonist (SHLA), human leptin D23L/L39A/D40A/F41A, P41159 22-167 (ligand)
chain: VPIQKVQDDTKTLIKTIVTRINLISHTQSVSSKQKVTGAAAIPGLHPILTLSKMDQTLAVYQQILTSMPSQNVIQISNDLENLRDLLHVLAFSKSCHLPWASGLETLDSLGGVLEASGYSTEVVALSRLQGSLQDMLWQLDLSPGC
[3]
  biological (inhibitory) activity, FIG. 12A: fold higher than that of HLA: > 9 fold

Source: US20130133089A1 (MEDICAL RESEARCH INFRASTRUCTURE AND HEALTH SERVICES FUND OF …, published 2013)
